How the values were obtained:
recombinant mouse MERTK [1] = biological target: T1, recombinant mouse MERTK (mouse, UniProt Q60805 23-496, limits assumed); assay: biolayer interferometry, M19 loaded on AMQ sensor at 1 ug/mL, msMer in solution at 0.0781 nM, local 1:1 fit
T1 construct: Analyte in solution in biolayer interferometry; also called msMer; murine MERTK
T1 sequence (looked up): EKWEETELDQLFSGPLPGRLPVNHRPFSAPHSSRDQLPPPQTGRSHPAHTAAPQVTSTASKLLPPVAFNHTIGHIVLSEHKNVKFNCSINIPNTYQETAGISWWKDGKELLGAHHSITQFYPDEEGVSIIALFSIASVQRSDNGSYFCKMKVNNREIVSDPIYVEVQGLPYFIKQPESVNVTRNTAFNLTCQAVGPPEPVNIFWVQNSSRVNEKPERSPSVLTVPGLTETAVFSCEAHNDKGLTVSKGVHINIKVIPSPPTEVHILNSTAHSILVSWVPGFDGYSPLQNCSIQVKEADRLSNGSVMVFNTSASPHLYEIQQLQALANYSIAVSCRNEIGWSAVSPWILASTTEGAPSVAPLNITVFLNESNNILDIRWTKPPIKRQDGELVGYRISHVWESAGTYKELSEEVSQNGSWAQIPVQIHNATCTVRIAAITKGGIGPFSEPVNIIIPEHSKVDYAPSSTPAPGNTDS
Experimental: (§1) FIG. 8: M19 binds to murine MERTK with high affinity. A diagram showing antibody binding kinetics for M19 (Mer-M19) against murine MERTK (msMer) using biolayer interferometry. Purified M19 was loaded on an AMQ sensor at a concentration of 1 microgram/mL to test binding against analytes in solution. All analytes were prepared at 5 nM with a 2-fold dilution series for a total of 7 concentrations. Kinetic fits were calculated using a 1:1 model, with Local fits for each concentration as well as an overall Global fit.
(§2) To characterize the binding affinity of M19 antibody against recombinant human and mouse MERTK, biomolecular interaction analysis was performed using biolayer interferometry (FIG. 7 and FIG. 8). Binding was observed between M19 and both mouse and human MERTK.

recombinant mouse MERTK [2] = biological target: T1, recombinant mouse MERTK; assay: biolayer interferometry, M19 loaded on AMQ sensor at 1 ug/mL, msMer in solution at 2.5 nM, local 1:1 fit
Experimental: as §1, §2

recombinant mouse MERTK [3] = biological target: T1, recombinant mouse MERTK; assay: biolayer interferometry, global fit; mouse MERTK
Experimental: as §1

recombinant mouse MERTK [4] = biological target: T1, recombinant mouse MERTK; assay: biolayer interferometry, M19 loaded on AMQ sensor at 1 ug/mL, msMer in solution at 1.25 nM, local 1:1 fit
Experimental: as §1, §2

recombinant human MERTK [5] = biological target: T2, recombinant human MERTK (human, UniProt Q12866 21-505, limits assumed); assay: biolayer interferometry, M19 loaded on AMQ sensor at 1 ug/mL, hMer in solution at 0.625 nM, local 1:1 fit
T2 construct: Analyte in solution in biolayer interferometry; also called hMer
T2 sequence: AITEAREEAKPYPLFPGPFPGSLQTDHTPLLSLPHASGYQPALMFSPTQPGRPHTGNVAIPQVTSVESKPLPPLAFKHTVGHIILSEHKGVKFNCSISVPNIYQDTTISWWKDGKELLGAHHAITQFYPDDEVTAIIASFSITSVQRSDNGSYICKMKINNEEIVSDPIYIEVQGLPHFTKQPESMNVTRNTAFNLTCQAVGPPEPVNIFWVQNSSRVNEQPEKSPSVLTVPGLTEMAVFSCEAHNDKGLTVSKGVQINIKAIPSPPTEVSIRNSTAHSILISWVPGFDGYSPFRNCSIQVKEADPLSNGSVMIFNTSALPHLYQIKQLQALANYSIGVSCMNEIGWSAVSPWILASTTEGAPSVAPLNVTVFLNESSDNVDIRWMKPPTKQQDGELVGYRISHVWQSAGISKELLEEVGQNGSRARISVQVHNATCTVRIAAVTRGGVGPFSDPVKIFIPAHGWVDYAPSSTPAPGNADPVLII
Experimental: as §1, with “7:” for “8:”, “human” for “murine”, “(hMer)” for “(msMer)”, “global” for “Global”
as §2

recombinant human MERTK [6] = biological target: T2, recombinant human MERTK; assay: biolayer interferometry, M19 loaded on AMQ sensor at 1 ug/mL, hMer in solution at 0.3125 nM, local 1:1 fit
Experimental: as §1, with “7:” for “8:”, “human” for “murine”, “(hMer)” for “(msMer)”, “global” for “Global”
as §2

recombinant mouse MERTK [7] = biological target: T1, recombinant mouse MERTK; assay: biolayer interferometry, M19 loaded on AMQ sensor at 1 ug/mL, msMer in solution at 5 nM, local 1:1 fit
Experimental: as §1, §2

recombinant human MERTK [8] = biological target: T2, recombinant human MERTK; assay: biolayer interferometry, M19 loaded on AMQ sensor at 1 ug/mL, hMer in solution at 5 to 0.0781 nM, global 1:1 fit
Experimental: as §1, with “7:” for “8:”, “human” for “murine”, “(hMer)” for “(msMer)”, “global” for “Global”
as §2

recombinant mouse MERTK [9] = biological target: T1, recombinant mouse MERTK; assay: biolayer interferometry, M19 loaded on AMQ sensor at 1 ug/mL, msMer in solution at 0.625 nM, local 1:1 fit
Experimental: as §1, §2

Kd (recombinant mouse MERTK [1]): 0.0472 nM | koff (recombinant mouse MERTK [1]): 0.00108 s⁻¹ | kon (recombinant mouse MERTK [1]): 2.29e+07 M⁻¹ s⁻¹ | Kd (recombinant mouse MERTK [2]): 0.341 nM | koff (recombinant mouse MERTK [2]): 0.00159 s⁻¹ | kon (recombinant mouse MERTK [2]): 4.66e+06 M⁻¹ s⁻¹ | Kd (recombinant mouse MERTK [3]): ~0.3 nM | Kd (recombinant mouse MERTK [4]): 0.282 nM | koff (recombinant mouse MERTK [4]): 0.00149 s⁻¹ | kon (recombinant mouse MERTK [4]): 5.27e+06 M⁻¹ s⁻¹ | Kd (recombinant human MERTK [5]): 0.155 nM | koff (recombinant human MERTK [5]): 0.00079 s⁻¹ | kon (recombinant human MERTK [5]): 5.11e+06 M⁻¹ s⁻¹ | Kd (recombinant human MERTK [6]): 0.128 nM | koff (recombinant human MERTK [6]): 0.000968 s⁻¹ | kon (recombinant human MERTK [6]): 7.57e+06 M⁻¹ s⁻¹ | Kd (recombinant mouse MERTK [7]): 0.354 nM | koff (recombinant mouse MERTK [7]): 0.00133 s⁻¹ | kon (recombinant mouse MERTK [7]): 3.77e+06 M⁻¹ s⁻¹ | koff (recombinant human MERTK [8]): 0.001 s⁻¹ | kon (recombinant human MERTK [8]): 3.08e+06 M⁻¹ s⁻¹ | Kd (recombinant mouse MERTK [9]): 0.198 nM | koff (recombinant mouse MERTK [9]): 0.00137 s⁻¹ | kon (recombinant mouse MERTK [9]): 6.92e+06 M⁻¹ s⁻¹
B1: monoclonal antibody M19 (antibody, V domains shown)
VH: EVQLEESGPDLKKPGETVKISCKASNYTFTDYSMHWVKQAPGKGLKWVGWINTDTGEPTYADDFKGRFAFSLETSASTAYLQINNLKNEDTATYFCARWFGAMDYWGQGTSVTVSS
VL: DIVITQSHKFMSTSVGDRVSITCKASQDVTNVVAWYQQKPGQSPKLLIYSASYRYTGVPDRFTGSGSGTDFTFTISSVQAEDLAVYYCQQYYRTPRTFGGGTKLEIKR
notes: Mouse hybridoma monoclonal antibody; Hybridoma supernatant was used in the ELISA screen, purified antibody in biolayer interferometry; also called Mer-M19
